Assay results reported in article PMC10397247.

Key:
Assay in all cases: two-hybrid library CCmax;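 further: natural log of median RNA to DNA barcode read ratio; higher means stronger binding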
O11-AA = target: T1, O11-AA
T1 chain: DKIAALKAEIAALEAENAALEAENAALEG

O14-AA = target: T2, O14-AA; details: mean of both orientations
T2 chain: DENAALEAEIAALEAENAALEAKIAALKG

4H1385-AA = target: T3, 4H1385-AA; details: mean of both orientations
T3 chain: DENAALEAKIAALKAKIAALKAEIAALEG

4H451-AA = target: T4, 4H451-AA; details: mean of both orientations
T4 chain: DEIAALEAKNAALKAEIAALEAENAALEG

4H2705-AA = target: T5, 4H2705-AA; details: mean of both orientations
T5 chain: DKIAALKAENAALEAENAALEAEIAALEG

GCN2_T = target: GCN2_T
4H3049-AA = target: T6, 4H3049-AA; details: mean of both orientations
T6 chain: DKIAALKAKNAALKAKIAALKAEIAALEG

4H4038-AA = target: T7, 4H4038-AA; details: mean of both orientations
T7 chain: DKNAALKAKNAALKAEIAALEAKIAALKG

4H43-AA = target: T8, 4H43-AA; details: mean of both orientations
T8 chain: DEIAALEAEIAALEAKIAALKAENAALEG

4H1350-AA = target: T9, 4H1350-AA; details: mean of both orientations
T9 chain: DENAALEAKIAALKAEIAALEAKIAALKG

O13-AA = target: T10, O13-AA; details: mean of both orientations
T10 chain: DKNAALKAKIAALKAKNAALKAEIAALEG

4H2622-AA = target: T11, 4H2622-AA; details: mean of both orientations
T11 chain: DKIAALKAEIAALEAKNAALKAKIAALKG

4H2736-AA = target: T12, 4H2736-AA; details: mean of both orientations
T12 chain: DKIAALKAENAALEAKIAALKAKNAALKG

4H_GCN4 = details: mean of both orientations
Chain of 4H_GCN4 (chain, as listed by the source): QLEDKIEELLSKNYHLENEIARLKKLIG

4H1070-AA = target: T13, 4H1070-AA
T13 chain: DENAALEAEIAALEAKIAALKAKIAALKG

4H384-AA = target: T14, 4H384-AA
T14 chain: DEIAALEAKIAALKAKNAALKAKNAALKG

4H1392-AA = target: T15, 4H1392-AA; details: mean of both orientations
T15 chain: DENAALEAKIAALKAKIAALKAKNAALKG

4H2888-AA = target: T16, 4H2888-AA; details: mean of both orientations
T16 chain: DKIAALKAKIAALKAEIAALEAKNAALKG

4H134-AA = target: T17, 4H134-AA; details: mean of both orientations
T17 chain: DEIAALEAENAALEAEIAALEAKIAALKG

4H3625-AA = target: T18, 4H3625-AA; details: mean of both orientations
T18 chain: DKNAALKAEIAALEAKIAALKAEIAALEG

4H510-AA = target: T19, 4H510-AA; details: mean of both orientations
T19 chain: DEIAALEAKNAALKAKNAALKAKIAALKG

4H3590-AA = target: T20, 4H3590-AA; details: mean of both orientations
T20 chain: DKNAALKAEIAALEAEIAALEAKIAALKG

4H1193-AA = target: T21, 4H1193-AA; details: mean of both orientations
T21 chain: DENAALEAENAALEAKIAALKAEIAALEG

4H_BCR = target: T22, 4H_BCR; details: mean of both orientations
T22 chain: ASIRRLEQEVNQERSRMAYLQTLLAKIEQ

4H337-AA = target: T23, 4H337-AA; details: mean of both orientations
T23 chain: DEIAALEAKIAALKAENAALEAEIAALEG

4H3587-AA = target: T24, 4H3587-AA; details: mean of both orientations
T24 chain: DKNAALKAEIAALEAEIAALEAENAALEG

4H3905-AA = target: T25, 4H3905-AA; details: mean of both orientations
T25 chain: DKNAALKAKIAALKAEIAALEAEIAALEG

B1: 4H1070-AA (peptide)
chain: DENAALEAEIAALEAKIAALKAKIAALKG
**Q.** B1 was tested. Which interaction score (O11-AA) did it give?
**A.** 1.22

**Q.** What about the interaction score (O14-AA) of the same binder?
**A.** 0.236

**Q.** And the interaction score (4H1385-AA)?
**A.** 1.6

**Q.** What about the interaction score (4H451-AA) of the same binder?
**A.** -1.11

**Q.** What about the interaction score (4H2705-AA) of the same binder?
**A.** -1.19

**Q.** What about the interaction score (GCN2_T) of the same binder?
**A.** -0.746

**Q.** And the interaction score (4H3049-AA)?
**A.** 0.86

**Q.** And the interaction score (4H4038-AA)?
**A.** 1.53

**Q.** And the interaction score (4H43-AA)?
**A.** 1.94

**Q.** What about the interaction score (4H1350-AA) of the same binder?
**A.** 1.96

**Q.** What about the interaction score (O13-AA) of the same binder?
**A.** -0.784

**Q.** And the interaction score (4H2622-AA)?
**A.** 1.21

**Q.** And the interaction score (4H2736-AA)?
**A.** -0.965

**Q.** What about the interaction score (4H_GCN4) of the same binder?
**A.** -1.5

**Q.** And the interaction score (4H1070-AA)?
**A.** 2.05

**Q.** What about the interaction score (4H384-AA) of the same binder?
**A.** -0.364

**Q.** What about the interaction score (4H1392-AA) of the same binder?
**A.** -0.733

**Q.** And the interaction score (4H2888-AA)?
**A.** 1.51

**Q.** And the interaction score (4H134-AA)?
**A.** 1.2

**Q.** And the interaction score (4H3625-AA)?
**A.** 1.73

**Q.** What about the interaction score (4H510-AA) of the same binder?
**A.** -1.68

**Q.** And the interaction score (4H3590-AA)?
**A.** 2.25

**Q.** What about the interaction score (4H1193-AA) of the same binder?
**A.** -0.64

**Q.** And the interaction score (4H_BCR)?
**A.** -1.54

**Q.** What about the interaction score (4H337-AA) of the same binder?
**A.** 0.472

**Q.** And the interaction score (4H3587-AA)?
**A.** 1.56

**Q.** And the interaction score (4H3905-AA)?
**A.** 2.23
